Laboratory results from US20090142377.

Legend:
[1] = molecular target: T1, dOVA-2: ovalbumin 1 mg/ml in PBS, five heat cycles 30 to 85 C, P01012
T1 chain: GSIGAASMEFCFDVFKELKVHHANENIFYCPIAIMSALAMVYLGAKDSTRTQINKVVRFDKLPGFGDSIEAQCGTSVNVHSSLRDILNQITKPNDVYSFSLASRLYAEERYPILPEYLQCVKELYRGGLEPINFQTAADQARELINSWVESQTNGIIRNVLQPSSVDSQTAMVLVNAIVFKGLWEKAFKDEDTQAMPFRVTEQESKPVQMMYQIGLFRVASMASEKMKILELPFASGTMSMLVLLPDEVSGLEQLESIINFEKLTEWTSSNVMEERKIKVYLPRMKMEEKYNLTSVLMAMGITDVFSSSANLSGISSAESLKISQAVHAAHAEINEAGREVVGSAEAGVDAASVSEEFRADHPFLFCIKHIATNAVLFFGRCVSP

[2] = molecular target: CH5-2 (nH5 heat-cycled at pH 2, back to pH 7), H5 of A/Vietnam/1203/04
[3] = molecular target: cross-beta factor VIII form 12: Helixate FVIII incubated for 1 week at 37 C, stored at 4 C, P00451
[4] = molecular target: T2, dOVA-3: ovalbumin 1 mg/ml in PBS, about 16 h at 75 C, P01012
T2 chain: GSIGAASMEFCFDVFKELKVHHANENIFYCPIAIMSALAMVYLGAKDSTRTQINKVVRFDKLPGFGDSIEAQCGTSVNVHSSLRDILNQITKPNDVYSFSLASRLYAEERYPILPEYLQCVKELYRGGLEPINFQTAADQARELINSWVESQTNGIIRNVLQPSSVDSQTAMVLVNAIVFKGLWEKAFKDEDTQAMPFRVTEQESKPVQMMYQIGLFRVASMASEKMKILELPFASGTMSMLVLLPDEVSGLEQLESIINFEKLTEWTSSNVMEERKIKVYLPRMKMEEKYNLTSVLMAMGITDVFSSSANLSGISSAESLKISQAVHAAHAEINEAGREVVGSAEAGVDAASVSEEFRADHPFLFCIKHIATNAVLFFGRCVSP

[5] = molecular target: CH5-4 (nH5 incubated with 100 mM glucose-6-phosphate for 67 h at 80 C), H5 of A/Vietnam/1203/04
[6] = molecular target: cross-beta FVIII-1 (cFVIII-1): Helixate FVIII kept at 4 C for 20 hours, stored at -80 C
Target sequence (chain, as listed by the source): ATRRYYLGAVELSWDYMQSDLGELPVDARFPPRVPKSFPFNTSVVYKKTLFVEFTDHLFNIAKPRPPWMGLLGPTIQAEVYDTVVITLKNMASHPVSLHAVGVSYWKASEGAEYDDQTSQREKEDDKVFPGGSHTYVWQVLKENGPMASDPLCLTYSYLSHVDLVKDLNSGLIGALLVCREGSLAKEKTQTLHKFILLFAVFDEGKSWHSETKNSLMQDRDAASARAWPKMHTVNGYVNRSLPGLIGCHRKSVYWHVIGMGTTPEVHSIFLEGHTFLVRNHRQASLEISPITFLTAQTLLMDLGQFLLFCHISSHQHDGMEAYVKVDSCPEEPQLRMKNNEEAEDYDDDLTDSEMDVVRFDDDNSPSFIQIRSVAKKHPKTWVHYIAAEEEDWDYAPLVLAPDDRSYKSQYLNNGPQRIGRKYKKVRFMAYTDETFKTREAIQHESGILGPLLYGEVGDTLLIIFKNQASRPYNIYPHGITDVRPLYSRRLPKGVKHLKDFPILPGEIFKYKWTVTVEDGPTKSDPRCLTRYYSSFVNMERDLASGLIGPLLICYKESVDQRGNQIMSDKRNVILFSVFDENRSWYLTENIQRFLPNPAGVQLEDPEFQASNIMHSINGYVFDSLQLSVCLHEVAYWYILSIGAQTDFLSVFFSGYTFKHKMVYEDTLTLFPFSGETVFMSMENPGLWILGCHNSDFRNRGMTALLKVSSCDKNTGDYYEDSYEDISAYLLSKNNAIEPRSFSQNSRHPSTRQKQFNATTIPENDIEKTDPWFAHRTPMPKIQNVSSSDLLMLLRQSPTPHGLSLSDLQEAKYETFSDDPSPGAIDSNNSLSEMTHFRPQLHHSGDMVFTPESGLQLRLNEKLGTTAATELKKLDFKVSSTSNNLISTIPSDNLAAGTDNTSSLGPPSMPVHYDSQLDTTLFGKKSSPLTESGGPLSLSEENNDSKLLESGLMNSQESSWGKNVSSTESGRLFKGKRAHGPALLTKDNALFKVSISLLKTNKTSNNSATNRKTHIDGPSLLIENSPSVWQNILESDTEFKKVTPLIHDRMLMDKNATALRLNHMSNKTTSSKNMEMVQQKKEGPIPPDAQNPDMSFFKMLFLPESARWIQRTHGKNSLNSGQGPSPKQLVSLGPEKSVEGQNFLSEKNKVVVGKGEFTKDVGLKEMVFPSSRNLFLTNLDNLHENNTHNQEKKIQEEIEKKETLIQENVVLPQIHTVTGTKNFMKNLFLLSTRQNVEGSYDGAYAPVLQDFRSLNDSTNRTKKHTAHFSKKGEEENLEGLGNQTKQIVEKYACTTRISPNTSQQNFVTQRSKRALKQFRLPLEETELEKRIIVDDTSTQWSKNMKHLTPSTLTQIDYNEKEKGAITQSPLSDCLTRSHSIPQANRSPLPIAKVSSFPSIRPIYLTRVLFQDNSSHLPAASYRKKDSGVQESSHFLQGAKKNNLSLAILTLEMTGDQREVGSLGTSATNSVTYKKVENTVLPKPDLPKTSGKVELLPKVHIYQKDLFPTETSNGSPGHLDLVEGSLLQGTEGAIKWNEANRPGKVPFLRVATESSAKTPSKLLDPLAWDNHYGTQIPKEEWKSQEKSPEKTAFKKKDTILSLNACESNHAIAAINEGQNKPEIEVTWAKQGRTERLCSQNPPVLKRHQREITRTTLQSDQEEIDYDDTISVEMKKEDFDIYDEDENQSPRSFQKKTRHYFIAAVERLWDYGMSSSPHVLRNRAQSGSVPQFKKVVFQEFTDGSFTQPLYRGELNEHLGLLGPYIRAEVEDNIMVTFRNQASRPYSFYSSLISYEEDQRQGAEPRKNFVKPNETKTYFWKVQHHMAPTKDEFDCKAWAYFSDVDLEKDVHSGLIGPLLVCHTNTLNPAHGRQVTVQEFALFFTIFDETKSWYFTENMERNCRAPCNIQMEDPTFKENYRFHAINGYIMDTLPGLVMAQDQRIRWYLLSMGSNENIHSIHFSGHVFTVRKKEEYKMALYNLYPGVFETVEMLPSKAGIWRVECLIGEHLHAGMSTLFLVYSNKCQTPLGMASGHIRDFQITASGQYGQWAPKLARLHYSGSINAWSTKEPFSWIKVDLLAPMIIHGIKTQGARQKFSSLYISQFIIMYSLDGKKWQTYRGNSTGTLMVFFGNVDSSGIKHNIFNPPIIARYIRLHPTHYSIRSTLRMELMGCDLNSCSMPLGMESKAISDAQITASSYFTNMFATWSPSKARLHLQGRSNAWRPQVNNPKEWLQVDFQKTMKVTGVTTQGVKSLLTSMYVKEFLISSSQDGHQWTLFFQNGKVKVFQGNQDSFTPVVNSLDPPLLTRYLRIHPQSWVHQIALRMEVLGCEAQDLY

[7] = molecular target: T3, dOVA-1: ovalbumin 5.2 mg/ml in HBS, acidified with HCl, 40 minutes at 37 C, neutralized, P01012
T3 chain: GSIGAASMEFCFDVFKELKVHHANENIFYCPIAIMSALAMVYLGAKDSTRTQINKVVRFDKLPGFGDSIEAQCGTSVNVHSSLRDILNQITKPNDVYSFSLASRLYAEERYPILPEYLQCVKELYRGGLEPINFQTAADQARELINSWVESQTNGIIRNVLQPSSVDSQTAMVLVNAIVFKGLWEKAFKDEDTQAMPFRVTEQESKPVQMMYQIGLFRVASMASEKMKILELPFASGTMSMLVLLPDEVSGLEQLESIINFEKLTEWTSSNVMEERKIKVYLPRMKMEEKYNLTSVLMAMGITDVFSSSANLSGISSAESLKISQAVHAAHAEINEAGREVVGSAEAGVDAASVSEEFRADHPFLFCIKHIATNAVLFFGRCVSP

[8] = molecular target: CH5-3 (nH5 heat-cycled at pH 12, back to pH 7), H5 of A/Vietnam/1203/04
[9] = molecular target: T4, cross-beta nOVA: ovalbumin (chicken egg-white albumin) dissolved at 1 mg/ml in PBS, P01012
T4 chain: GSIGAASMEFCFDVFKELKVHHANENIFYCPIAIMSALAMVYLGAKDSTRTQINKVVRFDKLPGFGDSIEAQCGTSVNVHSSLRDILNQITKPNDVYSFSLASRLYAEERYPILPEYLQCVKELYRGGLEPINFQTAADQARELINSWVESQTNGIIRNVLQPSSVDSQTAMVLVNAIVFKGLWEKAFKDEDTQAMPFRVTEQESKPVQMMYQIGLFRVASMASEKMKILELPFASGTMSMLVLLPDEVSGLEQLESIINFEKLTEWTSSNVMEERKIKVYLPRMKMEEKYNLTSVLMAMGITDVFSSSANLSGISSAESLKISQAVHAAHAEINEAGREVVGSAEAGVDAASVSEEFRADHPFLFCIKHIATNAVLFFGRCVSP

[10] = molecular target: cFVIII-5: Helixate FVIII kept at 95 C for 5 minutes
[11] = molecular target: CH5-1 (nH5 heat-cycled three times 25 to 85 C), H5 of A/Vietnam/1203/04
[12] = molecular target: non-treated H5 (nH5) of H5N1 strain A/Vietnam/1203/04 (Protein Sciences)

cross-beta factor VIII form 12: Helixate FVIII incubated for 1 week at 37 C, stored at 4 C, P00451, sequence (P00451 whole entry, looked up): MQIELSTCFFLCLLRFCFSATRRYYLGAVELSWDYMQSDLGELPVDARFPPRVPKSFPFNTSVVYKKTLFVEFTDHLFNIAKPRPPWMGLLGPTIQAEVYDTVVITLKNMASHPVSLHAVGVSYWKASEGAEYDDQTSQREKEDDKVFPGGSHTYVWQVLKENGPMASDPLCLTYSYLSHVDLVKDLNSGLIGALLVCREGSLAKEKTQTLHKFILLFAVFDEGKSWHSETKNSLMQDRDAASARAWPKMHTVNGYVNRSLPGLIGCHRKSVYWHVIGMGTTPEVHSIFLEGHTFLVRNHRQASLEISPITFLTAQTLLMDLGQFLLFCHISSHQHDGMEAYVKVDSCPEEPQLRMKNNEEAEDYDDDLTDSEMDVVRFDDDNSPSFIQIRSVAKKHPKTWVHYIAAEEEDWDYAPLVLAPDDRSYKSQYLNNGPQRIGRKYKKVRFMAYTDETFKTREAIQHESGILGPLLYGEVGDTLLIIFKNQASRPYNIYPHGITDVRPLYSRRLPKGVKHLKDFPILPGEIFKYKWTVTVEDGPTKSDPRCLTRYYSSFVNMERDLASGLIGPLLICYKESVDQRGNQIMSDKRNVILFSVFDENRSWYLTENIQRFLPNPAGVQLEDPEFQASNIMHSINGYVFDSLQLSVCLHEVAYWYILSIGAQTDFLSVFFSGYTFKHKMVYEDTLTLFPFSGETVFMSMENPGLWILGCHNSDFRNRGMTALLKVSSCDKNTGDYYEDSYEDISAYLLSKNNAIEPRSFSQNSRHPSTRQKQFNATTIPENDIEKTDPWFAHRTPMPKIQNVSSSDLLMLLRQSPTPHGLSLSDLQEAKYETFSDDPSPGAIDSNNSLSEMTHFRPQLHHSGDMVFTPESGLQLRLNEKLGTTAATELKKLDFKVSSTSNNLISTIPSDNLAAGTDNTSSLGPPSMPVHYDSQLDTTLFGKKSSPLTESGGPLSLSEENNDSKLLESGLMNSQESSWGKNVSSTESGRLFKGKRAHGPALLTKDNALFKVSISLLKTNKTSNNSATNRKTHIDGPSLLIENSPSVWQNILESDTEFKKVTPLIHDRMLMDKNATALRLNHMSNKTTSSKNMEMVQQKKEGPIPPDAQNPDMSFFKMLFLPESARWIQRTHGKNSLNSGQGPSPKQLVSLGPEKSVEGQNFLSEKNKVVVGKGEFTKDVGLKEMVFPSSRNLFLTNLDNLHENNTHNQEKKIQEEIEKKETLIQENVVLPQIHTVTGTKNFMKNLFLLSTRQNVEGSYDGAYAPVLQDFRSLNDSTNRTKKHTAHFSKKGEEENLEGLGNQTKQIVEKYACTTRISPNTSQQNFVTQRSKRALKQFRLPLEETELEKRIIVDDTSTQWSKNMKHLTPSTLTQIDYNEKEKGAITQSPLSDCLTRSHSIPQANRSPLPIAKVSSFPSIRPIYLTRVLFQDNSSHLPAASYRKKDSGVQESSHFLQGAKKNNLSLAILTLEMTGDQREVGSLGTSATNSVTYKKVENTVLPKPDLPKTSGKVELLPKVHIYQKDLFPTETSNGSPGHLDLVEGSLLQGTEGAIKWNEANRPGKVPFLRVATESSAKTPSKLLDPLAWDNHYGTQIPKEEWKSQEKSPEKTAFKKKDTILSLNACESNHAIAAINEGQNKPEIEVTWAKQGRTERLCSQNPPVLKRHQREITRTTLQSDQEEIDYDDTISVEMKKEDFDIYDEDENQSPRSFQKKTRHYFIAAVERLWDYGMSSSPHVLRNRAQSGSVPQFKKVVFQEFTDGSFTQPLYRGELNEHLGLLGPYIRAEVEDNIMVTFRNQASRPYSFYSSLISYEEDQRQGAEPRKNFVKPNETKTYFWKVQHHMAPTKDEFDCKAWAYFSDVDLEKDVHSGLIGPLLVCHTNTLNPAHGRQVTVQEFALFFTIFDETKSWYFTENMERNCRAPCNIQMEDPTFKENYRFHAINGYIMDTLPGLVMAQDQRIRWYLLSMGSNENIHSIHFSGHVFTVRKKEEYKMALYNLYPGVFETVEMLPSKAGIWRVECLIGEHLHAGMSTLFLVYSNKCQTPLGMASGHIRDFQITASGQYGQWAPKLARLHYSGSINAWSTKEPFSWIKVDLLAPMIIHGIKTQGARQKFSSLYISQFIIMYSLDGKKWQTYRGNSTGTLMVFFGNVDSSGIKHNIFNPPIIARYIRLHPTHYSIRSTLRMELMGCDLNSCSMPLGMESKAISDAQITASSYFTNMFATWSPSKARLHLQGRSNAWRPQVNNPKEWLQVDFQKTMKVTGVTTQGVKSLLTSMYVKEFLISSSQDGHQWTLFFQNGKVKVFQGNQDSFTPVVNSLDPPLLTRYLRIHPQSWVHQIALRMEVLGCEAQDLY
cFVIII-5: Helixate FVIII kept at 95 C for 5 minutes, sequence (chain, as listed by the source): as the sequence (chain, as listed by the source) above

B1: tissue type plasminogen activator (tPA; Actilyse, Boehringer-Ingelheim) (protein)
chain: SYQVICRDEKTQMIYQQHQSWLRPVLRSNRVEYCWCNSGRAQCHSVPVKSCSEPRCFNGGTCQQALYFSDFVCQCPEGFAGKCCEIDTRATCYEDQGISYRGTWSTAESGAECTNWNSSALAQKPYSGRRPDAIRLGLGNHNYCRNPDRDSKPWCYVFKAGKYSSEFCSTPACSEGNSDCYFGNGSAYRGTHSLTESGASCLPWNSMILIGKVYTAQNPSAQALGLGKHNYCRNPDGDAKPWCHVLKNRRLTWEYCDVPSCSTCGLRQYSQPQFRIKGGLFADIASHPWQAAIFAKHRRSPGERFLCGGILISSCWILSAAHCFQERFPPHHLTVILGRTYRVVPGEEEQKFEVEKYIVHKEFDDDTYDNDIALLQLKSDSSRCAQESSVVRTVCLPPADLQLPDWTECELSGYGKHEALSPFYSERLKEAHVRLYPSSRCTSQHLLNRTVTDNMLCAGDTRSGGPQANLHDACQGDSGGPLVCLNDGRMTLVGIISWGLGCGQKDVPGVYTKVTNYLDWIRDNMRP
With B1 the tPA activation potency, activation at 10 ug/mL (% of reference) [1] was 107, the tPA activation potency, activation at 25 ug/mL (% of reference) [1] was 107 and the tPA activation potency, reference dOVA-2 at 80 ug/mL (column 10 ug/mL) (% of reference) [1] was 100. The tPA activation potency, reference dOVA-2 at 80 ug/mL (column 25 ug/mL) (% of reference) [1] was 100, the “tPA mediated plasminogen activation assay” value [2] was “cH5-2 (150% of standard)” and the “tPA/Plg activation assay, compared to a misfolded ovalbumin standard” value [3] was “cross-beta fVIII forms 1, 12 and 5 is approximately 50, 75 and 125%”. For the same protein, the tPA activation potency, activation at 10 ug/mL (% of reference) [4] was 60.9, the tPA activation potency, activation at 25 ug/mL (% of reference) [4] was 79 and the “tPA mediated plasminogen activation assay” value [5] was “cH5-4 (37% of standard)”. The “tPA/Plg activation assay, compared to a misfolded ovalbumin standard” value [6] was “cross-beta fVIII forms 1, 12 and 5 is approximately 50, 75 and 125%”, the tPA activation potency, activation at 10 ug/mL (% of reference) [7] was 97.4 and the tPA activation potency, activation at 25 ug/mL (% of reference) [7] was 136. The “tPA mediated plasminogen activation assay” value [8] was “cH5-3 (200% of standard)”, the tPA activation potency, activation at 10 ug/mL (% of reference) [9] was 48.8 and the tPA activation potency, activation at 25 ug/mL (% of reference) [9] was 48.1. For the same protein, the “tPA/Plg activation assay, compared to a misfolded ovalbumin standard” value [10] was “cross-beta fVIII forms 1, 12 and 5 is approximately 50, 75 and 125%”, the “tPA mediated plasminogen activation assay” value [11] was “cH5-1 (50% of standard)” and the “tPA mediated plasminogen activation assay” value [12] was “nH5 (140% of standard)”.
